B1: Human vitronectin (natural protein, UniProt P04004 20-478, looked up)
chain: DQESCKGRCTEGFNVDKKCQCDELCSYYQSCCTDYTAECKPQVTRGDVFTMPEDEYTVYDDGEEKNNATVHEQVGGPSLTSDLQAQSKGNPEQTPVLKPEEEAPAPEVGASKPEGIDSRPETLHPGRPQPPAEEELCSGKPFDAFTDLKNGSLFAFRGQYCYELDEKAVRPGYPKLIRDVWGIEGPIDAAFTRINCQGKTYLFKGSQYWRFEDGVLDPDYPRNISDGFDGIPDNVDAALALPAHSYSGRERVYFFKGKQYWEYQFQHQPSQEECEGSSLSAVFEHFAMMQRDSWEDIFELLFWGRTSAGTRQPQFISRDWHGVPGQVDAAMAGRIYISGMAPRPSLAKKQRFRHRNRKGYRSQRGHSRGRNQNSRRPSRATWLSLFSSEESNLGANNYDDYRMDWLVPATCEPIQSVFFFSGDKYYRVNLRTRRVDTVDPPYPRSIAQYWLGCPAPGHL
notes: vitronectin, human; source: bought: Sigma-Aldrich
B3: Recombinant human factor H-related protein 5 (natural protein, UniProt Q9BXR6 19-569, looked up)
chain: EGTLCDFPKIHHGFLYDEEDYNPFSQVPTGEVFYYSCEYNFVSPSKSFWTRITCTEEGWSPTPKCLRMCSFPFVKNGHSESSGLIHLEGDTVQIICNTGYSLQNNEKNISCVERGWSTPPICSFTKGECHVPILEANVDAQPKKESYKVGDVLKFSCRKNLIRVGSDSVQCYQFGWSPNFPTCKGQVRSCGPPPQLSNGEVKEIRKEEYGHNEVVEYDCNPNFIINGPKKIQCVDGEWTTLPTCVEQVKTCGYIPELEYGYVQPSVPPYQHGVSVEVNCRNEYAMIGNNMITCINGIWTELPMCVATHQLKRCKIAGVNIKTLLKLSGKEFNHNSRIRYRCSDIFRYRHSVCINGKWNPEVDCTEKREQFCPPPPQIPNAQNMTTTVNYQDGEKVAVLCKENYLLPEAKEIVCKDGRWQSLPRCVESTAYCGPPPSINNGDTTSFPLSVYPPGSTVTYRCQSFYKLQGSVTVTCRNKQWSEPPRCLDPCVVSEENMNKNNIQLKWRNDGKLYAKTGDAVEFQCKFPHKAMISSPPFRAICQEGKFEYPICE
notes: complement factor H-related protein 5 (FHR5), human, recombinant; called 'full-length FHR5' in the discussion; Commercial recombinant protein; The discussion speaks of 'the dimerized full-length protein'; also called FHR5; full-length FHR5; source: bought: Novoprotein via Gentaur (recombinant)

Settings in all cases: both partners purified
Experiment [1] has as its target B3. Description: peptide or protein array; ECM proteins (0.5 mg/ml) printed on nitrocellulose-covered slides in triplicates, blocked with 4% BSA; incubated with FHR1 (5, 25, 50 µg/ml) or FHR5 (0.5, 5, 20 µg/ml); detected with goat anti-human FH or anti-FHR5 and Alexa-647 anti-goat IgG; signal above gelatin taken as binding.
The next experiment has as its target T1, Purified human factor H (human, UniProt P08603 19-1231).
T1 construct: complement factor H, human, 155-kDa serum glycoprotein, 20 CCP domains; also called FH; source: bought: Merck (purified human)
Put plainly: peptide or protein array; competition: printed ECM proteins incubated with 25 µg/ml FH with or without FHR1 (5, 25, 50 µg/ml) or FHR5 (0.5, 5, 20 µg/ml); bound FH detected with mAb A254 that does not cross-react with FHR1 and FHR5.

The experiment “Human vitronectin” has as its target B1. Put plainly: peptide or protein array; ECM proteins (0.5 mg/ml) printed on nitrocellulose-covered slides in triplicates, blocked with 4% BSA; incubated with FHR1 (5, 25, 50 µg/ml) or FHR5 (0.5, 5, 20 µg/ml); detected with goat anti-human FH or anti-FHR5 and Alexa-647 anti-goat IgG; signal above gelatin taken as binding.
The next experiment deals with T2, C3(H2O) (human, UniProt P01024 23-667; P01024 672-1663).
T2 construct: complement C3 beta chain, human; complement C3 alpha chain, human; Same chains as C3; source: generated from purified human C3 (Merck) with ten freeze/thaw cycles
Put plainly: ELISA; 10 µg/ml FHR5, CCPs 1-4, CCPs 3-7, CCPs 8-9 and alpha-1-antitrypsin immobilised, incubated with 5 µg/ml C3, C3(H2O) and C3b; detected with anti-human C3. Background: In an ELISA, binding on a coated surface is turned into a signal by an enzyme label.

In the next experiment the target is T3, Purified human C3b (human, UniProt P01024 23-667; P01024 749-1663).
T3 construct: complement C3 beta chain, human; complement C3b alpha' chain, human; also called soluble C3b; fluid-phase C3b; source: bought: Merck (purified human)
Description: ELISA; FHR5, CCPs 1-4, CCPs 3-7, CCPs 8-9 and HSA immobilised at 5 µg/ml, blocked with 4% BSA; 20 µg/ml C3b, iC3b, C3c or 10 µg/ml C3d added; detected with anti-human C3 or anti-human C3d.

T3 sequence (P01024 23-667, chain 1 of 2): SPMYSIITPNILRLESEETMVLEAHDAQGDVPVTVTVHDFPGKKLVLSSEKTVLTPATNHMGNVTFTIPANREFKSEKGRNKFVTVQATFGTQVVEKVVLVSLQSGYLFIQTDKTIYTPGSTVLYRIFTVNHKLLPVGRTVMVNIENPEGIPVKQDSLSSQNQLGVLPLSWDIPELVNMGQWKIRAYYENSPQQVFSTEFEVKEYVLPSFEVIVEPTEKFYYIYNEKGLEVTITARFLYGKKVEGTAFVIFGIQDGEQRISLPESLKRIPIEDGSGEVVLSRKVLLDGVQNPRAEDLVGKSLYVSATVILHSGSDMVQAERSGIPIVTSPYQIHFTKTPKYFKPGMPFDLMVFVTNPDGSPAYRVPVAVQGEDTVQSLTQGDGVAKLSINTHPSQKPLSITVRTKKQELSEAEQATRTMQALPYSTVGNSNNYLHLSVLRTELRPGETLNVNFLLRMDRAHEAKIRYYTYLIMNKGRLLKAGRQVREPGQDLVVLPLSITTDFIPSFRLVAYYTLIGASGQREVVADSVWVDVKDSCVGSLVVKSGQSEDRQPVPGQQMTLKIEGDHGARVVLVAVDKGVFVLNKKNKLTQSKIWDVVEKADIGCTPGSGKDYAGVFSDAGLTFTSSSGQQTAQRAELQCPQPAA
T3 sequence (P01024 749-1663, chain 2 of 2): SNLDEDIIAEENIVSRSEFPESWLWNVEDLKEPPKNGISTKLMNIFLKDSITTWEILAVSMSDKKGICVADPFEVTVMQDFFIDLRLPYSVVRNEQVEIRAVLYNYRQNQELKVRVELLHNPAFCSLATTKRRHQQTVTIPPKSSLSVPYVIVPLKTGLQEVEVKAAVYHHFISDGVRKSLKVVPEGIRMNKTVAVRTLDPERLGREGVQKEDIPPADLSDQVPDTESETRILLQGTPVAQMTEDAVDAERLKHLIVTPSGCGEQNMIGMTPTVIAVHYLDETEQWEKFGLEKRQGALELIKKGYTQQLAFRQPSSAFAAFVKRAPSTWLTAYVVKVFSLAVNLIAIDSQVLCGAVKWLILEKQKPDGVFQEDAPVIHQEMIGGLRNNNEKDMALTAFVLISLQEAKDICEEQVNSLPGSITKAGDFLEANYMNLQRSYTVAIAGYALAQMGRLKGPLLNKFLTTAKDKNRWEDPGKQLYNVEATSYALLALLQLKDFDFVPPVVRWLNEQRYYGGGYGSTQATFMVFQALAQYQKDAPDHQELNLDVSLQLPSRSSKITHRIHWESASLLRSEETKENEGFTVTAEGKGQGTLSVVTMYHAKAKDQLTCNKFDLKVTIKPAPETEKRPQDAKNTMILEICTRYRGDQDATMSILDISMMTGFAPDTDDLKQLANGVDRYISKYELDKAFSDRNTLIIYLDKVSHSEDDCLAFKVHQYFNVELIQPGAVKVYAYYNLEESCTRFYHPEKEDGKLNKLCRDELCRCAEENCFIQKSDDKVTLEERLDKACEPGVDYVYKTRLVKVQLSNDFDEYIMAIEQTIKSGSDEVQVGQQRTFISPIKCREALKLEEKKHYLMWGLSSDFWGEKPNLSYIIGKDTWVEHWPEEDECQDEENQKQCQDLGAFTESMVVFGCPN
T2 sequence (P01024 23-667, chain 1 of 2): as the sequence (P01024 23-667, chain 1 of 2) above
T2 sequence (P01024 672-1663, chain 2 of 2): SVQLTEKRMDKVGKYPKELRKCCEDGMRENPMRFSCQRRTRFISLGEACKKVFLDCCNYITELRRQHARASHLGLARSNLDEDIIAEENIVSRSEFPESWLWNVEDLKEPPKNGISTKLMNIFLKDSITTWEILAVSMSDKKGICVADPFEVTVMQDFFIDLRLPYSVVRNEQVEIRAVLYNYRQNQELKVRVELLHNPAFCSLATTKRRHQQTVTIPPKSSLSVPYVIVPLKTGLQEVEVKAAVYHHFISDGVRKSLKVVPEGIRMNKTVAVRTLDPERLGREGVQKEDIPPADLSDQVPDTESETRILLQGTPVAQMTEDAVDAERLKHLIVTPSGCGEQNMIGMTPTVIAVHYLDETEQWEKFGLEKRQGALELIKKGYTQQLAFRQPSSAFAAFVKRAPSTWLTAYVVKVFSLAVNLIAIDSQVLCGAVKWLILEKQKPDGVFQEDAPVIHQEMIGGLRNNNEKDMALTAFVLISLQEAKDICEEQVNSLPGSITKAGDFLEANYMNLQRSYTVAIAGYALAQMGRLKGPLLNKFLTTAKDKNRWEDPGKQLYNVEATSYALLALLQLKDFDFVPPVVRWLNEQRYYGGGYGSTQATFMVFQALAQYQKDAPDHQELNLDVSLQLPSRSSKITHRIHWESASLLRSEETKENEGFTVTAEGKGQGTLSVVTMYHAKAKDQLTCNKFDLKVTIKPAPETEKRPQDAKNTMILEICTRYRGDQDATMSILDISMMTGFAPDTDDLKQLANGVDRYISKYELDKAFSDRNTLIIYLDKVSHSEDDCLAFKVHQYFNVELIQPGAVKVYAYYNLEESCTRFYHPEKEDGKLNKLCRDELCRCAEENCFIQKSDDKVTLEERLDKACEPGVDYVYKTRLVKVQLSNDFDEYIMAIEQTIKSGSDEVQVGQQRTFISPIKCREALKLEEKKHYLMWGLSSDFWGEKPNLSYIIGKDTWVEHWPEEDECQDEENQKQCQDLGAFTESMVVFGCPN

B1: the binding result (in experiment [1]; with Purified human factor H) was “binds” in each case.

B2: Recombinant human factor H-related protein 1 (natural protein, UniProt Q03591 19-330, looked up)
chain: EATFCDFPKINHGILYDEEKYKPFSQVPTGEVFYYSCEYNFVSPSKSFWTRITCTEEGWSPTPKCLRLCFFPFVENGHSESSGQTHLEGDTVQIICNTGYRLQNNENNISCVERGWSTPPKCRSTDTSCVNPPTVQNAHILSRQMSKYPSGERVRYECRSPYEMFGDEEVMCLNGNWTEPPQCKDSTGKCGPPPPIDNGDITSFPLSVYAPASSVEYQCQNLYQLEGNKRITCRNGQWSEPPKCLHPCVISREIMENYNIALRWTAKQKLYLRTGESAEFVCKRGYRLSSRSHTLRTTCWDGKLEYPTCAKR
notes: complement factor H-related protein 1 (FHR1), human, recombinant; Commercial recombinant protein; also called FHR1; source: bought: Novoprotein via Gentaur (recombinant)
B2: the binding result with Human vitronectin was “binds”.
For the molecule B3, the binding result with C3(H2O) and with Purified human C3b was “binds” in each case.

The record behind these values is PMC8980529, “Complement Factor H-Related Proteins FHR1 and FHR5 Interact With Extracellular Matrix Ligands, Reduce Factor H Regulatory Activity and Enhance Complement Activation” (Frontiers in Immunology, 2022).
